This is an account of results in publication PMC6542653.

Series [1] has as its target T1, CytR DNA-binding domain wild type (UniProt P0ACN7 1-66).
T1 sequence: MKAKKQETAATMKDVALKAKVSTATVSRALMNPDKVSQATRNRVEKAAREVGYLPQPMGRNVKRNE
Put plainly: fluorescence anisotropy.

Series [2] concerns the target T2, CytR DNA-binding domain double mutant (DM) (UniProt P0ACN7 1-66, A29V;A48M).
T2 sequence: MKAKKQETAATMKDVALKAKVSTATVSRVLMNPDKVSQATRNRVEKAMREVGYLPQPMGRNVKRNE
The series can be described thus: fluorescence anisotropy. In general terms: Fluorescence polarisation rises when a labelled molecule tumbles more slowly, as on binding a larger partner.

B1: udp half-site (udpO) (dsDNA)
DNA 1: ATTTATGCAACGCA
DNA 2: TGCGTTGCATAAAT
On to B1, for which the binding result in series [1] and in series [2] was “binds” each time.
